Results taken from publication PMC5772480, “Galectin-13, a different prototype galectin, does not bind β-galacto-sides and forms dimers via intermolecular disulfide bridges between Cys-136 and Cys-138” (Scientific Reports, 2018).
Changes are numbered by the printed parent chain. Values after ≈ are worked out from the molar mass of the structure shown. One block for each molecule: values may come before it.

Columns and labels:
[1] = biological target: T1, Gal-13 (galectin-13, placental protein 13, PP13) (Homo sapiens, UniProt Q9UHV8, R53H); test: inhibition of hemagglutination of chicken erythrocytes; assay type: cell-based; settings: pH 7.4 PBS, on ice; minimum inhibition concentration
T1 construct: gene LGALS13; full length 1-139, synthetic gene in pET28a, E. coli BL21(DE3); N-terminal His tag removed by thrombin; disulfide-linked homodimer
T1 sequence (Q9UHV8 1-139 R53H): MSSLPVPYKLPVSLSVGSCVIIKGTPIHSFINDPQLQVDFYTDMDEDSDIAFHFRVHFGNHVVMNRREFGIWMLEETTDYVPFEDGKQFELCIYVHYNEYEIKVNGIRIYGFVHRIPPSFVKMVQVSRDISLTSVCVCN
From the text: inhibition of hemagglutination of chicken erythrocytes on Gal-13 (galectin-13, placental protein 13, PP13) | maltose and arabinose could inhibit the biological activity of […]

[2] = biological target: T2, Galectin-13 (wild type) (human), Q9UHV8; test: non-reducing SDS-PAGE; SDS-PAGE of Gal-13 with or without DTT reduction; dimer band at approximately 38 kDa without DTT; settings: remark: other sources report otherwise
T2 chain: T1 sequence (Q9UHV8 1-139 R53H) with H53R

[3] = biological target: T2, Galectin-13 (wild type) (human), Q9UHV8; test: native gel or EMSA; native PAGE, 15% separating gel, Tris-glycine buffer, 5 μg protein per lane, 90 V for 3 h; migration compared with Gal-1 (dimer) and C136S/C138S (monomer); settings: remark: other sources report otherwise
[4] = biological target: T2, Galectin-13 (wild type) (human), Q9UHV8; test: SEC; Superdex 75 10/300, PBS pH 7.4, 25 °C, 100 μg protein loaded, 0.5 ml/min; apparent molecular weights from a standard curve; Gal-13 also run in the presence of 10 mM DTT (mostly monomer, small amount of dimer); settings: remark: other sources report otherwise

MIC [1]: 200 mM (≈ 30 mg/mL)
Molecule: OC1OC[C@H](O)[C@H](O)[C@H]1O (some centres unmarked) [arabinose]

MIC [1]: 12.5 mM (≈ 4.28 mg/mL)
Molecule: OC[C@H]1O[C@H](O[C@H]2[C@H](O)[C@@H](O)C(O)O[C@@H]2CO)[C@H](O)[C@@H](O)[C@@H]1O (some centres unmarked) [maltose]

stoichiometry N [2]: 2
stoichiometry N [3]: 2
stoichiometry N [4]: 2
B1: Galectin-13 (wild type), Q9UHV8 1-139 (natural protein)
chain: T1 sequence (Q9UHV8 1-139 R53H) with H53R
modifications: here or on the partner: intermolecular disulfide bonds Cys136-Cys138' and Cys138-Cys136' in the dimer; intermolecular disulfide bonds Cys136-Cys138' and Cys138-Cys136' in the dimer
